Test [1] deals with DR5-41BB fusion protein (SEQ ID NO: 4). Kind of test: flow cytometry, Jurkat T cells transfected with DR5-41BB; signal is endogenous DR5 plus DR5-41BB. On the technique in general: Flow cytometry measures light scatter and fluorescence of single cells or particles in a stream.
The target is the same in test [2]. The experiment in a line: flow cytometry, Jurkat T cells transfected with DR5-41BB; DR5-41BB specific signal after mock is set to MFI=0.
The target of test [3] is TRAIL death receptor 5 (DR5) (UniProt O14763). Kind of test: flow cytometry, Jurkat T cells stained with anti-DR5 (FMO control 1.29%).
The target is the same in test [4]. Kind of test: flow cytometry, mock electroporated Jurkat T cells (endogenous DR5).
In test [5] the target is DR5-41BB fusion protein (SEQ ID NO: 4). The experiment in a line: flow cytometry, primary expanded NK cells electroporated with DR5-41BB mRNA; signal is endogenous DR5 plus DR5-41BB.
The target of test [6] is TRAIL death receptor 5 (DR5) (UniProt O14763). The experiment in a line: flow cytometry, mock electroporated primary expanded NK cells (endogenous DR5).
Test [7] concerns the target DR5-41BB fusion protein (SEQ ID NO: 4). The experiment in a line: flow cytometry, primary expanded NK cells electroporated with DR5-41BB mRNA; 608 minus 208.
Test [8] shares this target. The experiment in a line: cell-based or functional assay.

Chain of DR5-41BB fusion protein (SEQ ID NO: 4) (chain, as listed by the source limits assumed): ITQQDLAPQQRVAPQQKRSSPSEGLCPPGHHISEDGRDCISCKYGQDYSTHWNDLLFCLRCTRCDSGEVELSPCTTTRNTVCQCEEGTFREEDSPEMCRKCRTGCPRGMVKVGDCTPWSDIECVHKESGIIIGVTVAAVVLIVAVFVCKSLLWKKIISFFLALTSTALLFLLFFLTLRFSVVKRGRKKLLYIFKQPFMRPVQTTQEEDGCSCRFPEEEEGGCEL

In the case of “anti-DR5 antibody (Clone: DJR2-4, Source: Biolegend, Cat: 307406)”, the mean MFI in test [1] worked out at 2070 MFI; in test [4], 698 MFI; in test [5] it was 608 MFI; in test [6], 208 MFI. The figures for the mean MFI (mock background subtracted) in test [2] and in test [7] were 1380 MFI and 400 MFI, respectively. In test [3], this substance showed a percent of cells stained of 86.8%.

“soluble TRAIL ligand (from UniProt P50591 114-281)” came in with a cell death in T cells (Propidium Iodide, flow cytometry, 16 hours, 100 ng/ml TRAIL) in test [8] of 15%.

Source of the values: patent US20220143089A1.
